Experimental data published in patent publication US20240132603A1 (HARBOUR BIOMED US, published 2024).
Read-outs that look alike come from different tables or passages of the source.

Tests used:
[1] = molecular target: T1, human CCR8 (human, UniProt P51685 1-355); experiment: FACS, Baf3-hCCR8 cells
T1 construct: whole, on cells; construct used for the overexpressing cell lines is not described; also called hCCR8
Procedure, shortened: (§1)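 Primary Ab 5-fold titration from 200 nM (DPBS/2% FBS), 1 h 4 °C; secondary 1:1000, 40 min 4 °C; 2× DPBS washes; flow cytometry read-out.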

[2] = molecular target: T1, human CCR8; experiment: cell-based or functional assay
[3] = molecular target: T1, human CCR8; experiment: FACS, CHO-K1-hCCR8 cells
Procedure, shortened: as §1

[4] = molecular target: T1, human CCR8; experiment: FACS, HEK293-hCCR8 cells
Procedure, shortened: as §1

[5] = molecular target: T1, human CCR8; experiment: FACS, HEK293-hCCR8 cells; remark: listed apart in the source
Protocol: (§2) Cells overexpressing human CCR8 were digested with pancreatin, counted and resuspended to a cell density of 1E6 cells/mL. The cell suspension was added to a 96-well V-bottom plate at 100 μL/well and centrifuged at 300 g for 5 min, and the supernatant was discarded. The anti-CCR8 antibodies provided herein was used as a primary antibody and diluted in a 5-fold gradient with an FACS buffer (DPBS containing 2% FBS) from 200 nM. The diluted primary antibody was added at 100 μL/well to resuspend the cells, and the mixture was incubated at 4° C. for 1 h. The plate was washed twice with DPBS and centrifuged at 300×g for 5 min, and the supernatant was discarded. The secondary antibody diluted in a 1:1000 ratio with an FACS buffer was added at 100 μL/well to suspend the cells, and the mixture was incubated at 4° C. for 40 min. The plate was washed twice with DPBS and centrifuged at 300×g for 5 min, and the supernatant was discarded. DPBS was added at 200 μL/well to suspend the cells, and the mixture was loaded on an FACS machine for analysis.

[6] = molecular target: T2, cynomolgus monkey CCR8 (cynomolgus monkey, UniProt G7NYJ2 1-355); experiment: FACS, CHO-K1-CynoCCR8 cells
T2 construct: whole, on cells; also called CynoCCR8
Procedure, shortened: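 Anti-CCR8 antibodies titrated in 5-fold steps from 200 nM onto 1E6 cells/mL CHO-K1-CynoCCR8 in DPBS/2% FBS, 1 h at 4 °C. Bound antibody detected with 1:1000 secondary antibody, 40 min at 4 °C, then flow cytometry.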

[7] = molecular target: T2, cynomolgus monkey CCR8; experiment: FACS, CHO-K1-CynoCCR8 cells; remark: listed apart in the source
Protocol: as §2, with “cynomolgus monkey CCR8, CHO-K1-CynoCCR8,” for “human CCR8”

[8] = molecular target: T1, human CCR8; experiment: FACS on HEK293 cells overexpressing human CCR8
Protocol: as §2

[9] = molecular target: T1, human CCR8; experiment: FACS competition on HEK293-hCCR8 cells against a biotin-labelled anti-CCR8 antibody at its EC80; the labelled antibody of this panel is not named on the sheet
Protocol: (§3) The antibody was conjugated with Sulfo-NHS-LC-Biotin at a molar ratio of 5:1 (1 mol antibody was added to 5 mol Sulfo-NHS-LC-Biotin) with reference to the product instructions (ThermoFisher, Cat No. A39257) and incubated on ice for 2 h. The coupled antibody was purified with a Zeba desalting column (ThermoFisher, Cat No. 89882). Cells overexpressing human CCR8, HEK293-hCCR8, were added to a V-bottom 96-well plate at a density of 1E5 cells/well and centrifuged at 300 g for 5 min, and the supernatant was discarded. The competitive antibody was serially diluted in a ratio of 1:10 from 200 nM to obtain 8 concentration points. The Biotin-antibody and the competition antibody were mixed in a 1:1 ratio on an HEK293 cell line overexpressing human CCR8 by the binding EC₈₀ concentration. The cells in the 96-well plate were resuspended and incubated at 4° C. for 1 h. The plate was washed twice with DPBS at 200 μL/well. The secondary antibody diluted in a 1:1000 ratio was added at 100 μL/well, and the mixture was incubated at 4° C. for 40 min. The plate was washed twice with DPBS at 200 μL/well. Finally, DPBS was […] at 200 μL/well to suspend the cells, and the mixture was loaded on an FACS machine for analysis.

[10] = molecular target: T1, human CCR8; experiment: as above; remark: listed apart in the source
Protocol: as §3

[11] = molecular target: T1, human CCR8; experiment: as above; remark: listed apart in the source
Protocol: as §3

[12] = molecular target: T1, human CCR8; experiment: as above; remark: listed apart in the source
Protocol: as §3

[13] = molecular target: T1, human CCR8; experiment: as above; remark: listed apart in the source
Protocol: as §3

T1 sequence (P51685 whole entry): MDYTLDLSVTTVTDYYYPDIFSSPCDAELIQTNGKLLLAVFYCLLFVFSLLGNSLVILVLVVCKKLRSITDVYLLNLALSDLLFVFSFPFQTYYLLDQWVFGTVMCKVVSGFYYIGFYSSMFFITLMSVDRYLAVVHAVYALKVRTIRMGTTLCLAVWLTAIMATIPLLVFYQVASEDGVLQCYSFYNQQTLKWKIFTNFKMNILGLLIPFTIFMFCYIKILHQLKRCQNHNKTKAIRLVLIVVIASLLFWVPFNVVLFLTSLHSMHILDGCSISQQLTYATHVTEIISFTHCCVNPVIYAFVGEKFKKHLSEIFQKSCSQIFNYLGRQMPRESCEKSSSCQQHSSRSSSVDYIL
T2 sequence (G7NYJ2 entry or part of it): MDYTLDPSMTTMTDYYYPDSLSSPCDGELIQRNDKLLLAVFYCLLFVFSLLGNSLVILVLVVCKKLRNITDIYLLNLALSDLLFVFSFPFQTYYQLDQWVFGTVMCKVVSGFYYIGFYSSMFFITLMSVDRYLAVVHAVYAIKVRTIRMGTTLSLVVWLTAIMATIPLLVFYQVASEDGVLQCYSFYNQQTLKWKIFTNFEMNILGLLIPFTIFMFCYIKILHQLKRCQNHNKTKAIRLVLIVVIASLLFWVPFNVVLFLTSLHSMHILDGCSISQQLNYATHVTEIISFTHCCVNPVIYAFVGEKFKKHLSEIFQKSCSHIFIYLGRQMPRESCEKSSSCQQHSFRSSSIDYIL

B1: PR004122 (antibody, human IgG1, kappa)
heavy: not shown
light: DIVMTQAAPSVPVTPGESVSISCRSSKSLLHSNGNTYLYWFLQRPGQSPQLLIYRMSNLASGVPDRFSGSGSGTAFTLRISRVEAEDVGVYYCMQHLEYPLTFGAGTKLELKRTVAAPSVFIFPPSDEQLKSGTASVVCLLNNFYPREAKVQWKVDNALQSGNSQESVTEQDSKDSTYSLSSTLTLSKADYEKHKVYACEVTHQGLSSPVTKSFNRGEC
notes: chimeric, human IgG1 constant region
EC50 [1]: 0.17 nM | Bottom %, blocking of CCL1-stimulated calcium flux [2]: 12% | IC50(nM), blocking of CCL1-stimulated calcium flux [2]: 1.47 nM | EC50 [3]: 0.5 nM | EC50 [4]: 0.66 nM | EC50 [5]: 0.99 nM | EC50 [6]: 1.06 nM | EC50 [7]: 2.83 nM | EC50 (read off the curve) [8]: ~1 nM | IC50 (read off the curve) [9]: ~3 nM | IC50 (read off the curve) [10]: ~2 nM | IC50 (read off the curve) [11]: ~2 nM | IC50 (read off the curve) [12]: ~2 nM | IC50 (read off the curve) [13]: 1 to 2 nM
